Measured values taken from patent publication US20250347697A1, “Accurate Method for Generating a Phase Diagram of a Polymer” (MAX-PLANCK-GESELLSCHAFT ZUR FÖRDERUNG DER WISSENSCHAFTEN …, priority 2022, published 2025).

Legend:
Format in all cases: physicochemical
FUS = target: T1, FUS (Homo sapiens, UniProt P35637); assay: Effect of a small molecule drug on the phase diagram (binodal) of FUS, inPhase method; details: compared to untreated control (DMSO); temperature phase diagram, FIG. 9
T1 construct: made in house; host or cells: SF9-ESF insect cells (baculovirus) for the unlabelled FUS
T1 sequence (P35637 1-526): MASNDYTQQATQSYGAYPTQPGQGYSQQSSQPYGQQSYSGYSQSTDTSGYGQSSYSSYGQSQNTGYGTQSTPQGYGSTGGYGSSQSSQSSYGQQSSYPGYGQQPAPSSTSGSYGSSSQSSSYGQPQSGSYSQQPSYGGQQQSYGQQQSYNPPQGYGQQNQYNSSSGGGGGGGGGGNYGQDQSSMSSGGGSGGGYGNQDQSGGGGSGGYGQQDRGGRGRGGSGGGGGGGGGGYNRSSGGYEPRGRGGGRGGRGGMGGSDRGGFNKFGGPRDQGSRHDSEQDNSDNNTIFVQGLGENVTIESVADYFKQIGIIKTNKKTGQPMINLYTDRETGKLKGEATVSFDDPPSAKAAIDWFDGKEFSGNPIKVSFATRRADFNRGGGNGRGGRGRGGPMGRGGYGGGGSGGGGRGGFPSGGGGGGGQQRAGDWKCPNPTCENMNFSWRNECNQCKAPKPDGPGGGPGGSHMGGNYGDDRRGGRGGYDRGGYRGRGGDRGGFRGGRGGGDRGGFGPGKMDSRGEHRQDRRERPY
Source text: • 1. Measure the protein concentration of the stock solutions. The stock solutions can be unlabelled, a mix of labelled and unlabelled or fully labelled protein. Solutions containing only unlabelled protein will be detected using brightfield (or phase-contrast, DIC, etc.) while the mixes that contain labelled protein can be also detected with fluorescence means. • 2. Make a titration series of the protein solution. • 3. Trigger phase separation of the protein samples. Phase separation can be triggered for example by a change in salt, pH or temperature. • 4. Immediately after triggering phase separation, encapsulate in a water-in-oil system (e.g. PicoSurf oil (Sphere Fluidics, UK)). • 5. Centrifugation after encapsulation is optional but helps in the segmentation of the condensates. This is because the centrifugation coarsens the condensates. • 6. Load the titration series into chambers for microscopy imaging. […] Now the ratio condensate over emulsion droplet volume which is the volume fraction can be determined. In case of fluorescently labelled proteins the determination of the condensate volume can be complemented by fluorescence microscopy. • 8. Perform the image and segmentation analysis and fit the measured volume-fractions to a linear regression over the protein concentrations. • 9. […]

[1] = Partition factor derived from inPhase phase diagrams (water-in-oil emulsions); details: range over the tested temperatures and salt (KCl) concentrations, FIG. 15a
Source text: Partition factor and comparison to fluorescence-based quantification. The partition factor (PF) is often used in condensate research to characterise the up-concentration of protein in the condensed phase. It can be defined by the ratio of the condensed-over dilute-phase concentration (PF=ccon/cdil). In the condensate field it is common to determine the partition factor by comparing fluorescence intensity inside the condensate against the intensity in the dilute phase. In contrast, our method allows us to directly determine the partition factor by using the presented phase diagrams (FIG. 13 and FIG. 14).
• 1. Measure the protein concentration of the stock solutions. The stock solutions can be unlabelled, a mix of labelled and unlabelled or fully labelled protein. Solutions containing only unlabelled protein will be detected using brightfield (or phase-contrast, DIC, etc.) while the mixes that contain labelled protein can be also detected with fluorescence means. • 2. […] Now the ratio condensate over emulsion droplet volume which is the volume fraction can be determined. In case of fluorescently labelled proteins the determination of the condensate volume can be complemented by fluorescence microscopy. • 8. Perform the image and segmentation analysis and fit the measured volume-fractions to a linear regression over the protein concentrations. • 9. […]

FUS-GFP = target: T2, FUS-GFP (Homo sapiens, UniProt P35637); assay: Effect of RNA on protein phase separation (poly(A) RNA : FUS-GFP at fixed molar ratio); details: titration of total protein concentration at constant poly(A) RNA to protein ratio, FIG. 16
T2 construct: made in house; the listing says 'purified from BAC construct')
Description: FUS-GFP containing samples were prepared as described in Example 1. Phase separation was triggered by simultaneously lowering the salt concentration of the sample and adding the Poly(A) RNA in an amount to maintain a fixed molar ratio of Poly(A):FUS-GFP. The volume fraction of the condensed phase was determined as described in Example 1 and cdil and ccon, were determined, wherein ccon represents an apparent concentration containing both Poly(A) (SEQ ID No: 3) and FUS-GFP concentration. The concentration of the single components of the sample can be resolved by the knowledge of the molar ratio of RNA to protein in the condensed phase (FIG. 16).

Q: For `NC(=O)CCCCC1CCSS1` (stereo not drawn) [Lipoamide], which “effect on the phase behavior of FUS (condensed phase branch of the binodal)” value (FUS) is on record?
A: reduced amount of conformational changes at higher temperatures

B1: PGL-3: protein component of P granules in the germline of C. elegans; spiked with 5% PGL-3::GFP (protein, UniProt G5EBV6 1-693, looked up)
Guanyl-specific ribonuclease …: MEANKRQIVEVDGIKSYFFPHLAHYLASNDELLVNNIAQANKLAAFVLGATDKRPSNEEIAEMILPNDSSAYVLAAGMDVCLILGDDFRPKFDSGAEKLSQLGQAHDLAPIIDDEKKISMLARKTKLKKSNDAKILQVLLKVLGAEEAEEKFVELSELSSALDLDFDVYVLAKLLGFASEELQEEIEIIRDNVTDAFEACKPLLKKLMIEGPKIDSVDPFTQLLLTPQEESIEKAVSHIVARFEEASAVEDDESLVLKSQLGYQLIFLVVRSLADGKRDASRTIQSLMPSSVRAEVFPGLQRSVFKSAVFLASHIIQVFLGSMKSFEDWAFVGLAEDLESTWRRRAIAELLKKFRISVLEQCFSQPIPLLPQSELNNETVIENVNNALQFALWITEFYGSESEKKSLNQLQFLSPKSKNLLVDSFKKFAQGLDSKDHVNRIIESLEKSSSSEPSATAKQTTTSNGPTTVSTAAQVVTVEKMPFSRQTIPCEGTDLANVLNSAKIIGESVTVAAHDVIPEKLNAEKNDNTPSTASPVQFSSDGWDSPTKSVALPPKISTLEEEQEEDTTITKVSPQPQERTGTAWGSGDATPVPLATPVNEYKVSGFGAAPVASGFGQFASSNGTSGRGSYGGGRGGDRGGRGAYGGDRGRGGSGDGSRGYRGGDRGGRGSYGEGSRGYQGGRAGFFGGSRGGS
modifications: spiked with 5% PGL-3::GFP
notes: protein component of P granules in the germline of C. elegans; spiked with 5% PGL-3::GFP
Q: With B1 as the molecule, how does the “partition factor (PF=ccon/cdil)” value [1] read?
A: 10^1-10^3

B2: poly(A) RNA: Poly(A) RNA (SEQ ID No: 3) added to FUS-GFP at a fixed molar ratio (nucleic acid)
chain: AAAAAAAAAAAAAAAAAAAAAAAAAAAAAAAAAAAAAAAAAAAAAAAAAAAAAAAAAAAAAAAAAAAAAAAAAAAAAAAAAAAAAAAAAAAAAAAAAAAAAAAAAAAAAAAAAAAAAAAAAAAAAAAAAAAAAAAAAAAAAAAAAAAAAAAAAAAAAAAAAAAAAAAAAAAAAAAAAAAAAAAAAAAAAAAAAAAAAAAAAAAAAAAAAAAAAAAAAAAAAAAAAAAAAAAAAAAAAAAAAAAAAAAAAA
modifications: misc_feature 1..250 Poly(A) RNA
Q: With B2 as the molecule, how does the “effect of increasing the RNA to protein ratio on cdil” value (FUS-GFP) read?
A: reduces cdil
